Data published in patent US20230183233A1, “Bicyclic Pyridin-2-one and pyrimidin-4-one Derivatives Useful As a Factor XIa Inhibitors” (Janssen Pharmaceutica NV, priority 2021, published 2023).

System: Cc1cc(=O)oc2cc(NC(=O)[C@H](CCCNC(=N)N)NC(=O)[C@@H]3CCCN3C(=O)CNC(=O)OCc3ccccc3)ccc12
Experiment: Kallikrein inhibition assay utilizing a quenched AMC peptide substrate (FLINT, kinetic read)
Assay type: biochemical, human
Settings: other: peptide substrate for kallikrein; titration data fit to the Michaelis-Menten equation; pH 7.5

Chain of human plasma kallikrein (Homo sapiens) (chain, as listed by the source): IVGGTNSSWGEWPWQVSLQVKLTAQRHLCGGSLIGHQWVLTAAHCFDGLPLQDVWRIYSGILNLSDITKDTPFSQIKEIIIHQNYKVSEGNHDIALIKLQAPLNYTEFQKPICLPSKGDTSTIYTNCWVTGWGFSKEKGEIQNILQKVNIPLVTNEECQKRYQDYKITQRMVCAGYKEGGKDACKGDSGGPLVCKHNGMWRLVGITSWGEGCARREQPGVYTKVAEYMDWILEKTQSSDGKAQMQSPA

In the case of human plasma kallikrein (Homo sapiens), the Km is reported as 40 µM, the kcat is reported as 0.76 s⁻¹ and the kcat/Km is reported as 18932 M-is-1.
